Here are results for 4 molecules from patent US20200171163A1 (Daiichi Sankyo, published 2020).

The target of one experiment is T1, mouse CDH6 (on cells) (mouse, UniProt P97326 54-790).
T1 construct: also called mCDH6
T1 sequence: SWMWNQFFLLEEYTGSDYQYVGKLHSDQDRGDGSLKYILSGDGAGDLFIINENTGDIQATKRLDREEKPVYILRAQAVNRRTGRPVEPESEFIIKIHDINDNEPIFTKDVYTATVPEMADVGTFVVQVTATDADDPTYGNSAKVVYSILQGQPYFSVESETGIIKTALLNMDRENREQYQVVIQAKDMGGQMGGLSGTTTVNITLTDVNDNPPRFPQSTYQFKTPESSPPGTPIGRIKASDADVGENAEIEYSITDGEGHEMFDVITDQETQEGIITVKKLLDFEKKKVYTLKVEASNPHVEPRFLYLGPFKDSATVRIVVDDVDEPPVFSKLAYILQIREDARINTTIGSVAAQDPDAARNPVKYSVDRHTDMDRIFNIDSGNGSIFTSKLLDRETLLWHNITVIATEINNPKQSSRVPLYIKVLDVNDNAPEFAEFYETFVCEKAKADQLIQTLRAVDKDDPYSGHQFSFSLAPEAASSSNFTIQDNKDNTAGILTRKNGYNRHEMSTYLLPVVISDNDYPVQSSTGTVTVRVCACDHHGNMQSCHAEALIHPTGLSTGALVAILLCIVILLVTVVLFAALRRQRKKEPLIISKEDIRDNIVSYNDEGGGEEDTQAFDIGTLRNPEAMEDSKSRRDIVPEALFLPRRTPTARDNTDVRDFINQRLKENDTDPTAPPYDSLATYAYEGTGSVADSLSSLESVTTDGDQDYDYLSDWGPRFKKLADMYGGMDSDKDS
Put plainly: flow cytometry, MFI vs antibody concentration; 293α cells transiently transfected with mCDH6; PE anti-human IgG Fc. As to the method:
(§1) The cells were cultured overnight under conditions of 37° C. and 5% CO₂, and thereafter, a cell suspension was prepared. […] Thereafter, the cells were suspended by the addition of each of the 4 humanized hG019 antibodies (clone Nos: H01L02, H02L02, H02L03 and H04L02), which had been prepared in Example 5)-5-3, or human IgG1 control (Calbiochem). The cells were left standing at 4° C. for 1 hour. The cells were washed twice with PBS supplemented with 5% FBS, and then suspended by the addition of anti-human IgG, Fc(gamma) PE goat F(ab′) (Jackson ImmunoResearch Laboratories, Inc.) that had been 500-fold diluted with PBS supplemented with 5% FBS. The cells were left standing at 4° C. for 1 hour. The cells were washed twice with PBS supplemented with 5% FBS, followed by detection using a flow cytometer (Canto II; BD Biosciences). The data was analyzed using FlowJo (Tree Star, Inc.). In FIGS. 6-1 and 6-2, the abscissa depicts antibody concentration, and the ordinate depicts the amount of the antibody bound based on mean fluorescence intensity. As shown in FIGS. 6-1 and 6-2, the human IgG1 control as a negative control binds to none of the CDH6-transfected cells. The 4 humanized hG019 antibodies (clone Nos: H01L02, H02L02, H02L03 and H04L02) bind to human CDH6 and cynomolgus monkey CDH6, but bind to neither mouse nor rat CDH6. None of the antibodies bind to the cells transfected with the empty vector pcDNA3.1 as a negative control.

The target in a further experiment is T2, rat CDH6 (on cells) (rat, UniProt P55280 54-789).
T2 construct: also called rCDH6
T2 sequence: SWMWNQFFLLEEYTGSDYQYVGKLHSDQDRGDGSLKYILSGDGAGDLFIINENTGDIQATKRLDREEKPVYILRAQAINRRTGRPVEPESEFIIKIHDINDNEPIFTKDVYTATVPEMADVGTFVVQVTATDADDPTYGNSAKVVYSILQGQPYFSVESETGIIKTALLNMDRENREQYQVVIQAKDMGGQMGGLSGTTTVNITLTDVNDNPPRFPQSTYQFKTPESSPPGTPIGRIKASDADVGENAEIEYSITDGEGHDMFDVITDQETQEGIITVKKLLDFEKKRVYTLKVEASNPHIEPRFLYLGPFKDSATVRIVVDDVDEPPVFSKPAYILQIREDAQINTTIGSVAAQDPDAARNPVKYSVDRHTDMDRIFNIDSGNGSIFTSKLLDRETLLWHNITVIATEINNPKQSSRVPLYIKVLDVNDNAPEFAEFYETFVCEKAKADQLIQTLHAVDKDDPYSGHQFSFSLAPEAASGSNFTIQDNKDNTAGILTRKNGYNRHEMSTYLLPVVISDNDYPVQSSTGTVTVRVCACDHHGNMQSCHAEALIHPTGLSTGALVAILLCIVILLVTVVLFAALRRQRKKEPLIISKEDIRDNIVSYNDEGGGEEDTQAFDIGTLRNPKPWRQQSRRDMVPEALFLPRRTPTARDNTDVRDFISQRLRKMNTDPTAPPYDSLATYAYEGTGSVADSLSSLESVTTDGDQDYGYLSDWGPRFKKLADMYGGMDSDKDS
Put plainly: flow cytometry, MFI vs antibody concentration; 293α cells transiently transfected with rCDH6; PE anti-human IgG Fc. As to the method: as §1
For orientation: A flow cytometer gives signals particle by particle.

B1: H02L02 antibody (antibody, human IgG1, kappa, V domains shown)
VH: EVQLVQSGAEVKKPGASVKVSCKASGYTFTRNFMHWVRQAPGQGLEWMGWIYPGDGETEYNQKFQGRVTITADRSTSTAYMELSSLRSEDTAVYFCARGVYGGFAGGYFDFWGQGTLVTVSS
VL: DIQMTQSPSSLSASVGDRVTITCKASQNIYKNLAWYQQKPGKAPKLLIYDANTLQTGVPSRFSGSGSGSDFTLTISSLQPEDFATYFCQQYYSGWAFGQGTKVEIKR
notes: Humanized IgG1/kappa (hH02 + hL02); also called humanized hG019 antibody H02L02
As for B1, the binding result with mouse CDH6 (on cells) and with rat CDH6 (on cells) was “no binding (tested: about 4 nM)” each time.

B2: H04L02 antibody (antibody, human IgG1, kappa, V domains shown)
VH: QVQLVQSGAEVKKPGASVKVSCKASGYTFTRNFMHWIRQAPGQGLEWMGWIYPGDGETEYAQKFQGRVTLTADRSTSTAYMELSSLRSEDTAVYYCARGVYGGFAGGYFDFWGQGTLVTVSS
VL: DIQMTQSPSSLSASVGDRVTITCKASQNIYKNLAWYQQKPGKAPKLLIYDANTLQTGVPSRFSGSGSGSDFTLTISSLQPEDFATYFCQQYYSGWAFGQGTKVEIKR
notes: Humanized IgG1/kappa (hH04 + hL02); also called humanized hG019 antibody H04L02
With B2, the binding result with mouse CDH6 (on cells) and with rat CDH6 (on cells) was “no binding (tested: about 4 nM)” throughout.

B3: H01L02 antibody (antibody, human IgG1, kappa, V domains shown)
VH: EVQLVQSGAEVKKPGASVKVSCKASGYTFTRNFMHWVRQAPGQGLEWMGWIYPGDGETEYAQKFQGRVTITADTSTSTAYMELSSLRSEDTAVYYCARGVYGGFAGGYFDFWGQGTLVTVSS
VL: DIQMTQSPSSLSASVGDRVTITCKASQNIYKNLAWYQQKPGKAPKLLIYDANTLQTGVPSRFSGSGSGSDFTLTISSLQPEDFATYFCQQYYSGWAFGQGTKVEIKR
notes: Humanized IgG1/kappa (hH01 + hL02); also called humanized hG019 antibody H01L02; labeled H01L02
Take B3: the binding result with mouse CDH6 (on cells) and in the experiment with rat CDH6 (on cells) was “no binding (tested: about 4 nM)” in each case.

B4: H02L03 antibody (antibody, human IgG1, kappa, V domains shown)
VH: EVQLVQSGAEVKKPGASVKVSCKASGYTFTRNFMHWVRQAPGQGLEWMGWIYPGDGETEYNQKFQGRVTITADRSTSTAYMELSSLRSEDTAVYFCARGVYGGFAGGYFDFWGQGTLVTVSS
VL: DIQMTQSPSSLSASVGDRVTITCKASQNIYKNLAWYQQKLGEGPKLLIYDANTLQTGVPSRFSGSGSGTDFTLTISSLQPEDFATYYCQQYYSGWAFGQGTKVEIKR
notes: Humanized IgG1/kappa (hH02 + hL03); also called humanized hG019 antibody H02L03
In the case of B4, the binding result with mouse CDH6 (on cells) and with rat CDH6 (on cells) was “no binding (tested: about 4 nM)” in each case.
